From the nanobody polyreactivity screen of Harvey et al. (2022)

Assay: yeast display, Sf9 membrane polyspecificity reagent, FACS + sequencing; frameworks hold sequencing errors
How it was run: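 A nanobody's polyreactivity label depends on the gate it was sorted from. Yeast display cells were stained with 10% biotinylated, detergent-solubilized Sf9 membrane reagent for 1 hour at 4 °C, enriched on streptavidin microbeads and sorted by FACS. The low and high (top ~1%) gates were set on anti-HA fluorescence for expression and streptavidin fluorescence for reagent binding.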

| Sequence | polyreactivity (PSR sort gate) |
| --- | --- |
| QVQLVESGGGLVQAGGSLRLSCAASGRTFRYYAMGWYRQPPGKERELVAAISISGGNTYYADSVKGRFTISRDNAKNTVYLQMNSLKPEDTAVYYCAAAGRGSGYDYWGQGTQVTVSS | high polyreactivity |
| QVQHVESGGGLVQAGGSLRLSCAASGRTFGYNDMGWSRQAHGKERELVATISWGGGSTYYADSVKWRFTISRDNAKNTVYLQMNSLKAEDTAVYYCNKVHFGRRHSYSGAIYGEDYWGLGTQVTVSS | high polyreactivity |
| QVQLVESGGGLVQAGGSLRLSCAASGSTFSAYAMGWYRQAPGKERELVAAITRSGGSTYYADSVKGRFTISRDNAKNTVYLQMNSLKPEDTAVYYCAVRGYLLYYPPYKYEYWGQGTQVTVSS | high polyreactivity |
| QVQLVESGGGLVQAGGSLRLSCAASGRTFYHNAMGWYRQAPGKERELVAAITSGARTKYADSVKGRFTISRDNAKNTVYLQMNSLKPEDTAVYYCAAVYYFGKGKTFDYWGQGTQVTVSS | high polyreactivity |
| QVQLEESGGRLVQAGGSLRLSCAASGSTFQTYAMGWYRQAPGKERELVAAITWRGGSTYYADSVKGRFTISRDNAKNTVYLQMNSLKPEDTAVYYCAAKWHGAHDHRAAYESWGQGTQVTVSS | low polyreactivity |
| QVQHVESGGGLVQAGGSLLLSCAASGSITVSYMGWYRQAPGKERELVAAISFSGASTYYADSVKGRFTISRDDAKNTVYLQMNSLKPEDTAVYYCAAEYVIYYWFEWLDLDYWGQGTQVTVSS | high polyreactivity |
| QVHLVESGGGLDQAGGSLRLSSAASGTTYRYAMGCYRQAPGKAMELVATISSRGGTTSYADSVKGRFTISRDNAKNTVYLQMNSLKPEDTAVYSCAAGQFPKYFSDDADMDYWGQGPQVTVSS | low polyreactivity |
| QVQLVESGGGLVQAGGSLRLSCAASGRIFRPYTMGWYRQAPGKERELVAANSWRGGSTYYADSVKVRFTISLDNAKNTVYLLINSLKPEATAVYYCATYVKVIRTAGTRPKMGYWGQVTQVTVSS | high polyreactivity |
| QVQLVESGGGLVQAGGSLRLSCAASGSTFVGYAMGWYRQAPGKERELVAAISKSGGRTYYADSVKGRFTISRDNAKNTVYLQMNSLKPEDTAVYYCAAYFTRYDFRWHTYYYWGQGTQVTVSS | low polyreactivity |
| QVQLVESGGGLVQAGGSLRLSCAASGSIFYEYDMGWYRQAPGKERELVAALDGSADSTYYADSVKGRFTISRDNAKNTVYLQMNSLKPEDTAVYYCNTRYFRWDTEYGYWGQGTQLTVSS | low polyreactivity |
| QVQLVESGGGLVQAGGSLRLSCAASGSIFRPYAMGWYRPAPGQDRELVAAISSSGGGTYYADSVKGRFTISRDNAKKTVYLQMNSLKPEDTAVYLYGSWGQGTQVTVSS | low polyreactivity |
| QVQLVESGGGLVQAGGSLRLSCAASGITLYYYVMGWYRQAPGKERELVAAISWNSGRTYYADSVKGRFTISRDNAKNTVYLQMNSLKPEDTAVYYCAARPPVRLTYRYSYDYWGQGTQVTVSS | high polyreactivity |
| QVQLVESGGGLVQAGGSLRLSCAASGRIFYFNAMGWYRQAPGKERELDAAISWSGGSTYYADSVKGRFTISRDNAKNTVYLQMNSLKPEDTAVYSCATDSYRQGDYYRGRVDYWGQGTQVTVSS | low polyreactivity |
| QVQLVESGGGLVQAGGSLRLSCAASGRIFHGNAMGWYRQAPGKERELVARISSSGGGTYYADSVKGRFTISRDNAKNTVYLQMNSLKPEDTAVYYCAARRPDHTEVSNLRYDSWGQGTQVTVSS | low polyreactivity |
| QVQLVESGGGLFQAGGSLRISCAASGSTFRGYVMGWYRQAPGKERELVAAISRSGTSTYYADSVKGRFTISRDNAKNTVYLQMNSLKPEDTAVYYCAAQLYGHGEDYWGQGTQVTVSS | high polyreactivity |
| QVQMQERAAWCRRAGSLRLSCAASGNITDYYFMSWYRQAPGKERELVAAIAPGSNTYYADSVKGRFTISRDNAKNTVYLQMNSLKPEDTAVCFCAANSTQYTWFDYWGQGTQVPVSS | low polyreactivity |
| QVQLVESGGGLVKAGGSLRLSCAASGSTFRKYAMGWYRQAPGKEREFVAAISSSGGRTYYADSVKGRFTISRDNAKNTVYFLMNSLKPEDTAVYYCNSYFRYSNDYWGQGTQVTVSS | high polyreactivity |
| QVQLVESGGGLVQAGGSLRVSCAASGFTFPWYAMGWYRPAPGKERELVASISYRGDSTYYADSVKGRFTISRDNAKITVYLQMNSLKPEDTSVYYCNKRLDSYYLPGFDYWGQGTQVTVSS | low polyreactivity |
| QVQLVESAGGLVQAGGSLRLSCAASGSTFQDYVMGWYRQAPGKERELVAAISRSGGSTYYADSVKGRFTISRDNAKNTVYLQMNSLKPEDTAVYYCAAQQYTYFVPFLTYGEYDYWGQGTQVTVSS | low polyreactivity |
| QVQLVESGGGLVQAGGSLRLSCAASGRTFNRNAMGWYRQAPGKARELVAAISRGGGGTFFADSVKWRFTISRDNAKNTVYLQMNSLKPEDTAFYFCAAVPIAADKANGYDYWGQGTQVTVSS | low polyreactivity |
| KFQLVESGGGLVQAVGSLRLSCDASGRTFYYYDMGWYRQAPGKERELVAAITWDGGRTYYADSVMGRFTISRDNAKNTVYLQMNSLKPEDTAVYYCNADDFFEILGECTLMDYWGQGTQVTVSS | low polyreactivity |
